Optical density data for 32 molecules are collected here from patent US20210380703A1.

B1: 370_F08 (antibody, V domains shown)
VH: EVQLLESGGGLVQPGGSLRLSCAASGFTFDSYSMNWVRQAPGKGLEWVAGINYNGGYTSYADSVKGRFTISRDNSKNTLYLQMNSLRAEDTAVYYCARSATWHDTHLDYWGQGTLVTVSS
VL: DIQMTQSPSSLSASVGDRVTITCRASQSIISYVNWYQQKPGKAPKLLIYAATSRHSGVPSRFSGSGSGTDFTLTISSLQPEDFATYYCQQSYNLPLTFGGGTKVEIK
B2: 371_G03 (antibody, V domains shown)
VH: B1 VH with D30S, S33G, G50N, T58K, S59G
VL: B1 VL with I30V, S31T, L47V, R54L, H55A
B3: 365_A07 (antibody, V domains shown)
VH: B1 VH with D30S, S33G, G55S, T58K, S59G
VL: B1 VL with I30V, V33L, H55A
B4: 375_G07 (antibody, V domains shown)
VH: B1 VH with G55S
VL: B1 VL with I30L, V33L, L47V, R54L, H55A, N93D
B5: 373_E04 (antibody, V domains shown)
VH: B1 VH
VL: B1 VL with I30L, S31T, H55A, L94S
B6: 367_G07 (antibody, V domains shown)
VH: B1 VH with G50N, S59G
VL: B1 VL with I30L, S31T, H55A, N93D, L94N
B7: 365_D05 (antibody, V domains shown)
VH: B1 VH
VL: B1 VL with I30L, S31T, H55A, L94S
B8: 370_E07 (antibody, V domains shown)
VH: B1 VH with G50N, S59G
VL: B1 VL with I30L, S31T, V33L, H55A, N93D, L94N
B9: 376_B01 (antibody, V domains shown)
VH: B1 VH
VL: B1 VL with I30L, S31T, L47V, H55A
B10: 374_C11 (antibody, V domains shown)
VH: B1 VH with D30S, G55S, T58K, S59G
VL: B1 VL with I30L, S31T, V33L, H55A, N93E, L94S
B11: 371_F05 (antibody, V domains shown)
VH: B1 VH with D30S, G55S, T58K
VL: B1 VL with I30L, V33L, N93E, L94N
B12: 375_C12 (antibody, V domains shown)
VH: B1 VH with D30S, G50N, S59G
VL: B1 VL with I30L, S31T, V33L, H55A, N93D
B13: 375_B04 (antibody, V domains shown)
VH: B1 VH with G50N, S59G
VL: B1 VL with I30L, S31T, V33L, H55A, N93D, L94N
B14: 374_C05 (antibody, V domains shown)
VH: B1 VH with G55S, T58K
VL: B1 VL with S31R, V33L, L47V, H55A, N93D, L94N
B15: 376_B06 (antibody, V domains shown)
VH: B1 VH with D30S, G55S, T58K, S59G
VL: B1 VL with I30L, S31T, V33L, H55A, N93D
B16: 373_C09 (antibody, V domains shown)
VH: B1 VH with G55S, T58K
VL: B1 VL with I30L, S31T, V33L, L47V, H55A, N93E
B17: 373_E06 (antibody, V domains shown)
VH: B1 VH with G55S, T58K
VL: B1 VL with I30L, S31R, V33L, R54L, N93D, L94N
B18: 373_B03 (antibody, V domains shown)
VH: B1 VH with D30S, G55S, T58K
VL: B1 VL with I30L, S31T, V33L, L47V, R54L, H55A, N93D, L94N
B19: 365_B09 (antibody, V domains shown)
VH: B1 VH with G55S, T58K
VL: B1 VL with I30L, S31R, V33L, R54L, N93D, L94N
B20: 376_C11 (antibody, V domains shown)
VH: B1 VH with G55S, T58K
VL: B1 VL with I30L, S31T, V33L, L47V, H55A, N93D, L94N
B21: 368_G09 (antibody, V domains shown)
VH: B1 VH with S33G, N35H, G50N
VL: B1 VL with I30V, V33L, L47V, H55A, N93D, L94T
B22: 366_A03 (antibody, V domains shown)
VH: B1 VH with G55S, T58K, S59G
VL: B1 VL with I30S, V33L, R54L, H55A, N93S, L94N
B23: 365_A10 (antibody, V domains shown)
VH: B1 VH with D30S, S33G, N35H, G55S
VL: B1 VL with I30L, S31T, V33L, L47V, A51V, R54L, H55A, N93D, L94S
B24: 365_F08 (antibody, V domains shown)
VH: B1 VH with S31D, S33G, G50N
VL: B1 VL with I30L, N93S
B25: 373_G05 (antibody, V domains shown)
VH: B1 VH with D30S
VL: B1 VL with I30L, V33L, R54L, H55A, N93E
B26: 370_H03 (antibody, V domains shown)
VH: B1 VH with G55S, T58K, S59G
VL: B1 VL with I30L, S31T, V33L, R54L, H55A, N93D, L94T
B27: 369_A10 (antibody, V domains shown)
VH: B1 VH with G55S, S59G
VL: B1 VL with I30L, V33L, H55A, N93E
B28: 369_G07 (antibody, V domains shown)
VH: B1 VH with D30S
VL: B1 VL with I30L, S31T, L47V, H55A, N93D, L94N
B29: 374_D02 (antibody, V domains shown)
VH: B1 VH with G55S
VL: B1 VL with I30S, S31T, A51V, R54L, H55A, N93D, L94S
B30: 368_H01 (antibody, V domains shown)
VH: B1 VH with D30S, G55S, T58K
VL: B1 VL with I30L, V33L, A51T, R54L, H55A, N93D, L94N
B31: 374_C04 (antibody, V domains shown)
VH: B1 VH with D30S, G55S, T58K
VL: B1 VL with I30L, S31T, V33L, T52S, R54L, H55Q, N93E
B32: 372_F07 (antibody, V domains shown)
VH: B1 VH with S31D, G55S, T58K, S59G
VL: B1 VL with I30L, S31T, V33L, L47V, H55A, N93E

Where a chain is given by its changes, count along the chain named.

The test concerns the target human Fc (human). The test is described as follows: ELISA; negative control. (In general: In an ELISA, binding on a coated surface is turned into a signal by an enzyme label.)
The molecule B1 gave an optical density of 0.495 OD.

B2: the optical density was 0.359 OD.

B3 came in with an optical density of 0.284 OD.

For B4, the optical density is 0.178 OD.

In the case of B5, the optical density is 0.251 OD.

For the molecule B6, the optical density is 0.295 OD.

Take B7: the optical density was determined as 0.357 OD.

Consider B8, for which the optical density was determined as 0.379 OD.

B9 showed an optical density of 0.308 OD.

In turn, B10 gave an optical density of 0.471 OD.

The molecule B11 gave an optical density of 0.297 OD.

Turning to B12, the optical density is 0.197 OD.

For the molecule B13, the optical density is 0.19 OD.

The molecule B14 yielded an optical density of 0.175 OD.

For the molecule B15, the optical density came out at 0.222 OD.

B16: the optical density turned out to be 0.17 OD.

B17 yielded an optical density of 0.187 OD.

The molecule B18 came in with an optical density of 0.18 OD.

For the molecule B19, the optical density came to 0.272 OD.

The molecule B20 displayed an optical density of 0.23 OD.

B21 came in with an optical density of 0.281 OD.

For B22, the optical density was determined as 0.303 OD.

In turn, B23 came in with an optical density of 0.293 OD.

Consider B24, for which the optical density was 0.437 OD.

The molecule B25 displayed an optical density of 0.273 OD.

Molecule B26 returned an optical density of 0.381 OD.

In turn, B27 gave an optical density of 0.348 OD.

In turn, B28 showed an optical density of 0.32 OD.

B29 had an optical density of 0.204 OD.

B30 had an optical density of 0.374 OD.

Turning to B31, the optical density amounted to 0.201 OD.

B32: the optical density was 0.296 OD.
